Target: batCoV-SHC014 S-2P (spike ectodomain) (Bat SARS-like coronavirus RsSHC014, UniProt U5WLK5, stabilised)
Experiment: ELISA

B1: DH1047 (cross-neutralizing RBD antibody), IgG (antibody, V domains shown)
VH: QVQLVQSGAEVKKPGASVQVSCQASANTFTNHYIHWVRQAPGQGLEWMGIIYPTGGNTIYAQGFQGRVTMTRDTSLNTIYLELSSLRSEDTAVYYCARDVRVDDSWSGYDLLSGGTYFDYWGQGTLVTVSS
VL: not shown
binding result: binds
